Data on 3 molecules can be found in US20240279325A1 (Chugai, published 2024).

One assay concerns the target T1, human FcγRIIb (human, UniProt P31994 43-217).
T1 sequence: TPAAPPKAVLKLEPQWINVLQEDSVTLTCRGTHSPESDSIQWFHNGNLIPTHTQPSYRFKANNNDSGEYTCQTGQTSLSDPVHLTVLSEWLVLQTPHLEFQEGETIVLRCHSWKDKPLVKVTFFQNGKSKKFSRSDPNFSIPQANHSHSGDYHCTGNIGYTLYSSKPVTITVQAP
The assay is described as follows: SPR (Biacore), amount bound against IL6R-F652/IL6R-L x 100. From the text:
(§1) These variants were expressed and purified by the method of Reference Example 1. These Fc variants are called PD variants. Interactions of each PD variant with FcγRIIa type R (allotype R131) and FcγRIIb were comprehensively evaluated by the method of Reference Example 2.

In assay [1] the target is T2, human FcγRIIa type R (allotype R131) (human, UniProt P12318 36-217).
T2 construct: also called FcγRIIaR; R-type FcγRIIa
T2 chain: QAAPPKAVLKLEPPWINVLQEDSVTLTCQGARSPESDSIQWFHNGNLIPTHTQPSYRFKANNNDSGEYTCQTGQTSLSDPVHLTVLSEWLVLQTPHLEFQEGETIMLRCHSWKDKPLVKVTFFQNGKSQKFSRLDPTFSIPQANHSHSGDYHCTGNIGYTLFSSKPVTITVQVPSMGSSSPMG
Described as above.
Description: as §1

Assay [2] has as its target T3, human FcγRIIIa type V (allotype V158) extracellular domain with C-terminal His tag (human, UniProt P08637 17-208).
T3 construct: also called FcγRIIIaV
Briefly: SPR (Biacore), antibody captured, FcγR analyte.
T3 sequence (P08637 other isoform, or with tags, fused parts or gaps): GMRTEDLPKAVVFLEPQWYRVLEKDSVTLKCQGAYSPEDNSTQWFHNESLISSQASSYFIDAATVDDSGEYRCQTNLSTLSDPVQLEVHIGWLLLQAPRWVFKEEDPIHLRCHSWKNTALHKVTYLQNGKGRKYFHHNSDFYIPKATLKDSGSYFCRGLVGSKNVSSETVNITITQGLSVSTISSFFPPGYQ

The target of assay [3] is T4, human FcγRIIa type R (allotype R131) extracellular domain with C-terminal His tag (human, UniProt P12318 34-217).
T4 construct: also called FcγRIIaR
T4 chain: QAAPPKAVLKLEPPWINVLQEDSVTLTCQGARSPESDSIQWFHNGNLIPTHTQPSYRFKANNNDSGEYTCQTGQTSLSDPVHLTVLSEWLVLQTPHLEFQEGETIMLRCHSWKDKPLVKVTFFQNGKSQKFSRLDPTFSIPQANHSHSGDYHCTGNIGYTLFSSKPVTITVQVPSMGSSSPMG
The assay is described as follows: SPR (Biacore), antibody captured, FcγR analyte. Background: SPR reads the build-up and loss of mass on a sensor chip optically.

The target of assay [4] is T5, human FcγRIIIa type V (allotype V158) extracellular domain with C-terminal His tag (human, UniProt P08637 17-208).
T5 construct: extracellular domain; also called FcγRIIIaV; FrgRIIIaV
The assay is described as follows: SPR (Biacore), captured antibody, FcγR analyte.
T5 sequence (P08637 17-208 F176V): as the sequence (P08637 other isoform, or with tags, fused parts or gaps) above, with S179A counted along it

The target in assay [5] is T6, human FcγRIa extracellular domain with C-terminal His tag (human, UniProt P12314 16-292).
T6 construct: extracellular domain; also called FrgRIa
T6 sequence (P12314 16-292): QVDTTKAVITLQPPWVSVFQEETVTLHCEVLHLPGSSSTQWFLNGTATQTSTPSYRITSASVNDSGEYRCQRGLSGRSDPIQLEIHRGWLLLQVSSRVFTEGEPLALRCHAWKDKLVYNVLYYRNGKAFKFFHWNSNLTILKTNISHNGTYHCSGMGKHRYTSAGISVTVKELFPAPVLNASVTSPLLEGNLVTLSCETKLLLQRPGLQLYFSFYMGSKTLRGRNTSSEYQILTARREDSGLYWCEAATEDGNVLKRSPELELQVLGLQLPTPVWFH
The assay is described as follows: SPR (Biacore), captured antibody, FcγR analyte.

The target of assay [6] is T7, human FcγRIIb extracellular domain with C-terminal His tag (human, UniProt P31994 43-217).
T7 construct: extracellular domain; also called FrgRIIb
T7 sequence (looked up): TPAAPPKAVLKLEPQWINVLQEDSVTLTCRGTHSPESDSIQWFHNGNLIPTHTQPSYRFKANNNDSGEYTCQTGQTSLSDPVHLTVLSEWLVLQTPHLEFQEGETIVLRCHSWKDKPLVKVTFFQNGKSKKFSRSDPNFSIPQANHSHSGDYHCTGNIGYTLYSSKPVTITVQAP
Briefly: SPR (Biacore), captured antibody, FcγR analyte.

In assay [7] the target is T8, human FcγRIIa type R (allotype R131) extracellular domain with C-terminal His tag (human, UniProt P12318 34-217).
T8 construct: extracellular domain; also called FcγRIIaR; FrgRIIaR
T8 sequence (looked up): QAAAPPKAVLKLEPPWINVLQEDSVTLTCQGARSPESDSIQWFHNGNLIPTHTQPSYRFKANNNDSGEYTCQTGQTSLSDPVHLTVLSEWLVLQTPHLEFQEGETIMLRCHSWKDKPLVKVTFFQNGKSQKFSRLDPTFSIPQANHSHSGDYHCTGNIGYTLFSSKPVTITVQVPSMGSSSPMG
The assay is described as follows: SPR (Biacore), captured antibody, FcγR analyte.

For assay [8], the target named is T9, human FcγRIIa type H (allotype H131) extracellular domain with C-terminal His tag (human, UniProt P12318 34-217).
T9 construct: extracellular domain; also called FcγRIIaH; FrgRIIaH
T9 sequence (looked up): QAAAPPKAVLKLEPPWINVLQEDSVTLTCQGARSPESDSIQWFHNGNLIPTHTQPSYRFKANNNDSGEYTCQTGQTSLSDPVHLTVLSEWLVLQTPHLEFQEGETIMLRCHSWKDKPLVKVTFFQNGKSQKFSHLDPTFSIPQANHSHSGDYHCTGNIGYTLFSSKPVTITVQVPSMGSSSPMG
The assay is described as follows: SPR (Biacore), captured antibody, FcγR analyte.

B1: IL6R-F652/IL6R-L (antibody, human IgG1, kappa)
heavy: QVQLQESGPGLVKPSETLSLTCAVSGHSISHDHAWSWVRQPPGEGLEWIGFISYSGITNYNPSLQGRVTISRDNSKNTLYLQMNSLRAEDTAVYYCARSLARTTAMDYWGEGTLVTVSSASTKGPSVFPLAPSSKSTSGGTAALGCLVKDYFPEPVTVSWNSGALTSGVHTFPAVLQSSGLYSLSSVVTVPSSSLGTQTYICNVNHKPSNTKVDKKVEPKSCDKTHTCPPCPAPELLGGDSVFLFPPKPKDTLYISRTPEVTCVVVDVSHEDPEVKFNWYVDGVEVHNAKTKPREEQYNSTYRVVSVLTVLHQDWLNGKEYKCKVSNKALPAPIEKTISKAKGQPREPQVYTLPPSRDELTKNQVSLTCLVKGFYPSDIAVEWESNGQPENNYKTTPPVLDSDGSFFLYSKLTVDKSRWQQGNVFSCSVMHEALHYHYTQKSLSLSP
light: not shown
notes: copies: 2 + 2
For the molecule B1, the relative binding activity (in the assay with human FcγRIIb; in assay [1]) was 100 IL6R-F652/IL6R-L = 100 throughout.

B2: IL6R-BP112/IL6R-L (antibody, human IgG1, kappa, name in EU numbering)
heavy: QVQLQESGPGLVKPSETLSLTCAVSGHSISHDHAWSWVRQPPGEGLEWIGFISYSGITNYNPSLQGRVTISRDNSKNTLYLQMNSLRAEDTAVYYCARSLARTTAMDYWGEGTLVTVSSASTKGPSVFPLAPSSKSTSGGTAALGCLVKDYFPEPVTVSWNSGALTSGVHTFPAVLQSSGLYSLSSVVTVPSSSLGTQTYICNVNHKPSNTKVDKKVEPKSCDKTHTCPPCPAPELLGGDSVFLFPPKPKDTLMISRTPEVTCVVVDVSHEDGEVKFNWYVDGVEVHNAKTKPREEQYNSTYRVVSVLTVLHQDWLNGKEYKCKVSNKALPAPIEKTISKAKGQPREPQVYTLPPSRDELTKNQVSLTCLVKGFYPSDIAVEWESNGQPENNYKTTPPVLDSDGSFFLYSKLTVDKSRWQQGNVFSCSVMHEALHNHYTQESLSLSP
light: not shown
notes: Alterations introduced into IL6R-B3; also called P238D/P271G; copies: 2 + 2
What is called Kd is a measure of binding affinity in units of concentration. Turning to B2, the figures for the Kd in assay [2] and in assay [3] were 69 µM and 3.5 µM, respectively.

B3: IL6R-BP198/IL6R-L (antibody, human IgG1, kappa, name in EU numbering)
heavy: QVQLQESGPGLVKPSETLSLTCAVSGHSISHDHAWSWVRQPPGEGLEWIGFISYSGITNYNPSLQGRVTISRDNSKNTLYLQMNSLRAEDTAVYYCARSLARTTAMDYWGEGTLVTVSSASTKGPSVFPLAPSSKSTSGGTAALGCLVKDYFPEPVTVSWNSGALTSGVHTFPAVLQSSGLYSLSSVVTVPSSSLGTQTYICNVNHKPSNTKVDKKVEPKSCDKTHTCPPCPAPDYLGGDSVFLFPPKPKDTLMISRTPEVTCVVVDVSDEDGEVKFNWYVDGVEVHNAKTKPREEQYNSTYRVVSVLTVLHQDWLNGKEYKCKVSNAALPKPIEKTISKAKGQPREPQVYTLPPSRDELTKNQVSLTCLVKGFYPSDIAVEWESNGQPENNYKTTPPVLDSDGSFFLYSKLTVDKSRWQQGNVFSCSVMHEALHNHYTQESLSLSP
light: not shown
notes: Alterations introduced into IL6R-B3, EU numbering; copies: 2 + 2
Regarding B3, the relative binding activity is 157 % of IL6R-BF648/IL6R-L binding in assay [4]; 104 % of IL6R-BF648/IL6R-L binding in assay [5]; 164 % of IL6R-BF648/IL6R-L binding in assay [6]; 449 % of IL6R-BF648/IL6R-L binding in assay [7]; 188 % of IL6R-BF648/IL6R-L binding in assay [8].
